Results on one substance are retold here after article PMC270082.

Assay [1] addresses PcrG (residues 1-98) (P. aeruginosa strain CHA). Kind of assay: native MS.
The target is the same in assay [2]. Kind of assay: SPR. In general terms: In SPR one partner is held on a chip, and binding of the other changes the refractive index at the surface.
In assay [3] the target is PcrG (1-74) (P. aeruginosa strain CHA). As to the kind of experiment: SPR.

For “PcrV (from UniProt G3XD49 1-294) (natural protein)”, the stoichiometry N – broadly, the number of molecules, sites or subunits per partner or assembly – in assay [1] was 1. Moreover, in assay [2], the Kd (in general, a measure of binding affinity in units of concentration) was 0.0156 µM; the koff – broadly, the rate constant with which the complex falls apart – worked out at 0.00694 s⁻¹; the kon (in general, a measure of how fast the partners come together) was determined as 445000 M⁻¹ s⁻¹. For the same substance, in assay [3], the Kd is 0.0156 µM, the koff came to 0.00491 s⁻¹ and the kon turned out to be 316000 M⁻¹ s⁻¹.
